Test: label from the status in PepcDB records
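Note: failed if final PepcDB status was selected cloned or expressed and not failed if soluble or beyond.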

Sequence | protein production
MSVKVSEYMTKKVVTVSKDNTVKDVIKLLKETGHNSFPVVENGKLIGIVSVHDIVGKDDNEKVENVMTKRKDMVVTTPDANIMDVGRIMFRTGFSKLPVVDEENNLVGIISNMDVIRSQIEKTTPKKLENIIKTYKSLGYNLRVEKEEVDVNKLRPTQNKIHADELVGRMYELKKGLAEPIIAIKTKRGDYYILVDGHHRAVAAYKMGVPKLDAYVIYLDTDKKLGIEKTAEIMNLKSLEDVKIVDSDDENSVKVIKYNKNGVLG | failed
MSVLDLPELALDCILDLLPPSGLCSMARVCSSLRERCVSDHLWEKHLKTKWGKILGPAAHREWQCYISSSTYHLDSPHHQTGNLGFAKIISLIRSLSSVFREDKQRRGYASSLPLDSSMSCYLSLETGRFWFPAQVYNRENGHVGFMLSCYDAELSYDTHTDTFQARYPPHGRRASAIEKGVTWDRIRAAPIDASPHLLHVSDSLKELKPGDHIEIQWRRNKEFPYGK | failed
MSVMYKKILYPTDFSETAEIALKHVKAFKTLKAEEVILLHVIDEREIKKRDIFSLLLGVAGLNKSVEEFENELKNKLTEEAKNKMENIKKELEDVGFKVKDIIVVGIPHEEIVKIAEDEGVDIIIMGSHGKTNLKEILLGSVTENVIKKSNKPVLVVKRKNS | not failed
MSVTVFIPGDSAALAVGANRVAEAIAREAASRNLDVQIVRNGSRGMLWLEVLVEVRTEHGRIAYGPVKAADVTSLFDADFLDGGDHRLCLGPTKDIPFLKNQTRLTFARCGVTDPLSLEDYRNYQGMKGLEKAVTMEPLAIVAQVTESGLRGRGGAGFPTGIKWKTVADARADQKYIVCNADEGDSGTFADRMIMEGDPFVLIEGMAIAGLAVGATKGFIYTRSEYPYAIKVMEKAIEIARREGILGSSVLGSGRAFDMEVRMGAGAYVCGEETSLLNSLEGKRGTVRAKPPLPALQGLFGKPTVVNNVISLASIPVIMDRGAAFYRDFGVGRSHGTIPIQLAGNIRYGGLYETAFGLTLGQLVNDIGGGTITGRPVKAVQVGGPLGAYFPVSLFDTIFDYEAFTAAGGLIGHAGIVVFDDTADMLHQARFALEFCAVESCGKCTPCRIGSTRGVETVDKIALGIEREKNTALLEDLCETMKFGSLCALGGFTPYPVMSALRHFPQDFAPIPRVEAAELEHHHHHH | failed
MSVTVRVPAKVNVQLAVGAARPDGFHDLANVFLAVSLYDEVTATPAADGLRVTCEGPDAGQVPLDRTNLAARAAEALAARYGRAPDVHLHIAKDIPVAGGMAGGSADGAGALLACDALWGTGASREELLEICAGLGSDVPFSLVGGAALGTGRGERLAELE | failed
MSWAAPDDIFFSTSLAAYLDKKLLVLLRDGRKLMGLLRSFDQFANAVLEEAYERVIVGDLYCDIPLGLYIIRGENVVLIGELDVEKEELPAHMVQVPEAEIKRAQKAEKEEMLLKGTMRKRMEFLDLD | failed
MSWTVDIPKEVLPDLPPLPEGMQQQFEDTISRDAKQQPTWDRAQAENVRKILESVPPIVVAPEVLELKQKLADVANGKAFLLQGGDCAETFESNTEPHIRANVKTLLQMAVVLTYGASTPVIKMARIAGQYAKPRSSDLDGNGLPNYRGDIVNGVEATPEARRHDPARMIRAYANASAAMNLVRALTSSGTADLYRLSEWNREFVANSPAGARYEALAREIDSGLRFMEACGVSDESLRAADIYCSHEALLVDYERSMLRLATDEEGNEELYDLSAHQLWIGERTRGMDDFHVNFASMISNPIGIKIGPGITPEEAVAYADKLDPNFEPGRLTIVARMGHDKVRSVLPGVIQAVEASGHKVIWQSDPMHGNTFTASNGYKTRHFDKVIDEVQGFFEVHRALGTHPGGIHIEFTGEDVTECLGGAEDITDVDLPGRYESACDPRLNTQQSLELAFLVAEMLRN | failed
MSYDVIVRNGLWFDGTGRPPQVRTLGIRDGVVATVSAKPLDETGCPEVIDAGGKWVVPGFIDVHTHYDAEVLLDPGLRESVRHGVTTVLLGMCSLSTVYSDAEDAADLFSRVEAVPRQFVLGALESRKTWSNPAEYVAAIDALPLGPNIASLLGHSDLRASVLGLDRATTRGVVPTDDELETMADRLDAALDAGMLGMSGMDAAIDKLDGDRFRSRALPSTFATWRERRRLIKVLRKRGRILQSAPNVAKAQEALNFFLESSSLFGRRRGVRMSLLVSADAKSSPGAARVIGMGTRLLNKTLDAKVRFQHLPVPFELYSDGIDLPVFEEFGAGTAALHLRDQLERNKLLADPEYRRRFRRSFDRRKLGPTLWHRDFHDATIVECPDESLIGKTFGRIADERGIHPLDAFLDVLVDNGEKNVRWTTIVANHRPKVLDQLANDPAVHMGFSDAGAHLRNMAFYNYPLRLLKRVRDAQLSGRPFLTTERAVYRLTAEVADWFGVDAGTLREGDRADFVVIDPNCLNSDVDAYHEETVPFYGGLSRMVNRNDDAVVATAVNGTVVFGKGEFRDGYGDTVKSGRYLRAGADSRLKTAVLEHHHHHH | failed
MSYIRLVTWNVDFDSPFNYERFTAIAEEVLGAKPGVVLFQEVSDLPFSSWQGEKEQSTITSARQHDSCYKVLLRRLEALYEPIVDLGLPSEQAYFVMAFVDRSKYRVHGYEYTEFENSSQGRGLLAIQLEPRDMCGDFKFRVLTSHLESGTACSEVRVQQMRQIAYEMLEGDTPAIFAGDTNFREKEKAGFEKEIAKAIGSEEMRLFDLFVEVGEPSHLRFTWDTRTNTNKVKELPPRFRPRARFDQVLFTRPFQANAMRLLGRERLGHAVFPSDHYGIYGELRF | failed
MSYSVMFALLLLTPLLFSLLCFACRKRRLSATRTVTVLHSLGITLLLILALWVVQTAADAGEIFAAGLWLHIDGLGGLFLAILGVIGFLTGIYSIGYMRHEVAHGELSPVTLCDYYGFFHLFLFTMLLVVTSNNLIVMWAAIEATTLSSAFLVGIYGQRSSLEAAWKYIIICTVGVAFGLFGTVLVYANAASVMPQAEMAIFWSEVLKQSSLLDPTLMLLAFVFLLIGFGTKTGLFPMHAWLPDAHSEAPSPVSALLSAVLLNCALLVLIRYYIIICQAIGSDFPNRLLLIFGMLSVAVAAFFILVQRDIKRLLAYSSVENMGLVAVELGIGGPLGIFAALLHILNHSLAKTLLFCGSGNVLLKYGTRDLNVVCGMLKIMPFTAVLFGGGALALAGMPPFNIFLSEFMTITAGLARNHLLIIVLLLLLLTLVLAGLVRMAARVLMAKPPQAVNRGDLGWLTTSPMVILLVMMLAMGTHIPQPVIRILAGASTIVLSGTHDLPAQRSTWHDFLPSGTASVSEKHSER | failed
MTAAIRRTVTFPGVSMARLKSMLGAYNGHLKQIEQRLDVQITHRGDAFYIDGDIDAVERAESLLQRLYNESETSDQISADILHLMIQGSQTDRELMDDSEQEHTGLDNVWLQTPKGRINPRGTNQKRYVQRILQSDISFGIGPAGTGKTYLAVAAAVDMLERNEIQRILLVRPAVEAGEKLGFLPGDLAQKIDPYLRPLYDALYEMLGFEKVAKLIERQVIEVAPLAYMRGRTLNHSFVILDEAQNTTPEQMKMFLTRLGFGSRAVITGDITQVDLPRGQQSGLAHALRVLEPIKEIHITRFHSRDVVRHQLVQKIVEAYEGWDSEQNRLSAEARAERKARQEALMSEHDAAADAQHQEA | failed
MTAAPAALHDRALHLLQTIWGYPAFRGVQGEIVQQVAEGGNALVLMPTGGGKSLCYQLPSLLRPGTGIVVSPLIALMKDQVDTLRQNGVRAAFLNSTLLPHEAREVEDALLRGDLDLLYVAPERLLMPRTLDLLERAPVALFAIDEAHCVSQWGHDFRPEYQQLSVLAERFPELPRVALTATADERTRADIKSVLRLEDAPQFVSSFDRPNIQYRVGLKDSPKTQLLHFIREEHPGDAGIVYCLSRKSVEETAKWLQAQGIDALAYHAGLSSTERNNVQERFLNEEGVIVCATVAFGMGIDKPNVRFVAHLDLPKSMEGYYQETGRAGRDGLPSTAWMVYGLSDVVNVRRMLAQSDAPEEVKRVEASKLDALLTYCEAATCRRQVLLHYFGEELSEPCGNCDVCLNPPRVRDLTREAQMALSATIRTGNRFGAAHLTDVLLGRETDKVLAQGHHQLPTFGVGKEHDEKLWRSVLRQLVSLGYLSADDHFGLRATGKSRGILKEGQKLLLREDTLLPGAGKSKRDRASASRAALDSHDAPLFEALRAWRLQKAKELSLPPYTIFHDATLKTIAELRPGSHATLGTVSGVGGRKLAAYGDEVLQVVRDSSGGGQAGPENLLDSPAFDPAVRGARNNNAVLDVLGSKGELQPQPKPAHPGVLGALRELRRTLAAEQGRSLSWVFPEATIDELARKLPTRSEELKDVFGLGGQRIQAFGDRILATIRAELTGGAPSPAPSAPAALFDEAVPPAPNADLSEALRELRRELMKETGYSAFVVFTNATLEALAARQPRTLAELAEVPGLGEKRIEAYGERILDAINTVLDG | failed

From a protein production outcome set (Wang et al. 2014)
